B1: DNA repair protein RAD51 (Saccharomyces cerevisiae), P25454 (parent)
chain: MSQVQEQHISESQLQYGNGSLMSTVPADLSQSVVDGNGNGSSEDIEATNGSGDGGGLQEQAEAQGEMEDEAYDEAALGSFVPIEKLQVNGITMADVKKLRESGLHTAEAVAYAPRKDLLEIKGISEAKADKLLNEAARLVPMGFVTAADFHMRRSELICLTTGSKNLDTLLGGGVETGSITELFGEFRTGKSQLCHTLAVTCQIPLDIGGGEGKCLYIDTEGTFRPVRLVSIAQRFGLDPDDALNNVAYARAYNADHQLRLLDAAAQMMSESRFSLIVVDSVMALYRTDFSGRGELSARQMHLAKFMRALQRLADQFGVAVVVTNQVVAQVDGGMAFNPDPKKPIGGNIMAHSSTTRLGFKKGKGCQRLCKVVDSPCLPEAECVFAIYEDGVGDPREEDE

Variants of: B1
Conditions: with smt3_yeast SMT3, Q12306
Chain of smt3_yeast SMT3, Q12306 (Q12306 whole entry): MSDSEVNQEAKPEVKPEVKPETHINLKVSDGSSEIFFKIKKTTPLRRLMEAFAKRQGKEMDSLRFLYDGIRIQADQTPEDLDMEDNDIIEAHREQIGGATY
In the case of V321A;V322A, the “effect of a mutation on the interaction” value is reported as “disrupting interaction strength”.

Variants of: B1
Conditions: with rad52_yeast RAD52, P06778
In the case of V321A;V322A, the “effect of a mutation on the interaction” value is reported as “decreasing interaction strength”.

Reference: IntAct's records for PubMed 23624404
